Data: the supplement of paper PMC12764529
± gives the half width of the 95% confidence interval.

Legend:
[1] = folding stability dG unfold (combined trypsin and chymotrypsin); higher = more stable
How it was run: (§1)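 How resistant each design was to proteolysis was captured as K50, inferred by Bayesian fitting of sequencing counts. Unfolding free energy was then derived relative to a sequence-predicted unfolded-state K50 and a shared folded-state K50, per protease or combined. Digestion used trypsin and chymotrypsin at 11 threefold-diluted concentrations plus a no-protease condition, on mini-proteins under 80 residues without cysteine in a PA-tagged cDNA display construct. Designs were kept only when AlphaFold2 dimer inter-PAE was above 15.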

[2] = folding stability dG unfold from chymotrypsin proteolysis; higher = more stable
How it was run: as §1

[3] = folding stability dG unfold from trypsin proteolysis; higher = more stable
How it was run: as §1

Sequence	folding stability dG unfold [1]	folding stability dG unfold [2]	folding stability dG unfold [3]
SAGGSAGGSAGGNWVMIEFNFPPGKKLKIEIPNGRDIQRHRDPDNGTLWFMIPPEAAEDFSAGGSAGGSAGG [r7_155_TrROS]	0.636 ± 0.27 kcal/mol	0.509 ± 0.26 kcal/mol	0.649 ± 0.11 kcal/mol
SAGGSAGGSAGGNYFMMVVLEIRLPPELKGMSPEEWLKKNGYEVTEIEIKGIYPFPPPDGSAGGSAGGSAGG [r7_62_TrROS]	2.9 ± 0.1 kcal/mol	3.31 ± 0.062 kcal/mol	2.02 ± 0.12 kcal/mol
SAGGSAGGSAGGPANLNDEPVLLIPVSSELLKLIPAEKLVELAAKLASPNVKRIYVLAPESAGGSAGGSAGG [r7_487_TrMRF]	0.424 ± 0.088 kcal/mol	0.58 ± 0.13 kcal/mol	0.12 ± 0.11 kcal/mol
SAGGSAGGSAGGPEEPEKLTLRVTLTFYNPETQEPVEEVEVEITLTAEDLKEGKITITPSAGGSAGGSAGGS [r10_672_TrROS_Hall]	2.32 ± 0.13 kcal/mol	2.85 ± 0.07 kcal/mol	1.54 ± 0.043 kcal/mol
SAGGSAGGSAGGPEIELLEDVKPGEFVVIKVKLKDADGNEVTATFVFYNGEWYLTKIEPSAGGSAGGSAGGS [r10_288_TrROS_Hall]	4.54 ± 0.2 kcal/mol	4.73 ± 0.063 kcal/mol	2.92 ± 0.14 kcal/mol
SAGGSAGGSAGGPEVERFRIPGDNVLVEVVRLEDERIARITFPDGSQLTVPLPPGWEAFSAGGSAGGSAGGS [r10_976_TrMRF]	0.948 ± 0.097 kcal/mol	0.851 ± 0.13 kcal/mol	0.853 ± 0.031 kcal/mol
SAGGSAGGSAGGPEVTLRLRLEVEVRVVVLKDGKLEEKTFRFELEVEVRFEPGMSLEELSAGGSAGGSAGGS [r10_633_TrROS_Hall]	3.91 ± 0.075 kcal/mol	4.09 ± 0.086 kcal/mol	3.23 ± 0.15 kcal/mol
SAGGSAGGSAGGPILKITLELSPEEIEELAKALGLKVKKVEKEKNKDGKLRVTIYIELKSAGGSAGGSAGGS [r10_999_TrROS_Hall]	2.81 ± 0.078 kcal/mol	3.24 ± 0.057 kcal/mol	2.12 ± 0.085 kcal/mol
SAGGSAGGSAGGPKTVRIVEYDPETQRVVIELEDGSKVVIEVPPGMSVEELKGKTLTVEPSAGGSAGGSAGG [r7_296_TrROS_Hall]	1.14 ± 0.17 kcal/mol	0.569 ± 0.1 kcal/mol	1.79 ± 0.051 kcal/mol
SAGGSAGGSAGGPKVEIVEVTVEGDKVTIRVKNEETGEWVTLEVTLKDLPKVTFVLKPKSAGGSAGGSAGGS [r10_655_TrROS_Hall]	1.19 ± 0.11 kcal/mol	1.16 ± 0.19 kcal/mol	1.17 ± 0.032 kcal/mol
SAGGSAGGSAGGPKVFKFKDKIIVIYPNKKPNEEVKVVVKNPKTGKKEEFKIKIPKELLKSAGGSAGGSAGG [r7_834_TrMRF]	0.847 ± 0.11 kcal/mol	1.11 ± 0.13 kcal/mol	0.512 ± 0.079 kcal/mol
SAGGSAGGSAGGPLIVFERNADGTLTAVAVDEETGEVTVTRVTLKDGKLTVETETLPLDESAGGSAGGSAGG [r7_28_TrROS_Hall]	1.65 ± 0.042 kcal/mol	1.82 ± 0.017 kcal/mol	1.49 ± 0.048 kcal/mol
SAGGSAGGSAGGPNHYVMATETIEFEFEIRTRNEDGKPQEIKIKFTLTVIRMFPLPPGDPSAGGSAGGSAGG [r7_926_TrROS]	4.73 ± 0.25 kcal/mol	5.03 ± 0.26 kcal/mol	3.36 ± 0.42 kcal/mol
SAGGSAGGSAGGPNNKPKPKQVTFDIEIEDIEIDPEHGLISIEIRFPDGGKEITARIPISAGGSAGGSAGGS [r10_427_TrROS]	0.276 ± 0.16 kcal/mol	0.27 ± 0.11 kcal/mol	0.14 ± 0.059 kcal/mol
SAGGSAGGSAGGPPDLVKVRFIKVSVKLKEVKENPNGEKEMKLEMKIEEVEVTVRKDDLSAGGSAGGSAGGS [r10_524_TrROS_Hall]	2.71 ± 0.15 kcal/mol	2.71 ± 0.12 kcal/mol	2.61 ± 0.21 kcal/mol
SAGGSAGGSAGGPPVTLLVVVRNEDGSLYLVRVEFDLETNEVKVEVFTLDDLKNLPEELSAGGSAGGSAGGS [r10_1077_TrROS_Hall]	3.26 ± 0.25 kcal/mol	3.66 ± 0.075 kcal/mol	2.14 ± 0.14 kcal/mol
SAGGSAGGSAGGPTLELEITLPDGFKLRVTFDPEKGLRVELVEPVPAPPPKVEYRSLEDLSAGGSAGGSAGG [r11_188_TrROS_Hall]	1.37 ± 0.18 kcal/mol	1.62 ± 0.11 kcal/mol	0.552 ± 0.13 kcal/mol
SAGGSAGGSAGGPVFTPVGAGDEDTVTTETLPDGSPVLRYTVPGTGVVEVALPDGTLLAESAGGSAGGSAGG [r11_601_JUSTAS]	-0.883 ± 0.22 kcal/mol	-1.66 ± 0.79 kcal/mol	-0.722 ± 0.073 kcal/mol
SAGGSAGGSAGGPYWRVKIEWMDPNGKKKEHTFTFPPGWPLEEIAEELKPNGYKIEVEPLSAGGSAGGSAGG [r7_226_TrROS]	1.46 ± 0.085 kcal/mol	1.7 ± 0.1 kcal/mol	0.962 ± 0.044 kcal/mol
SAGGSAGGSAGGQTIVIDSRLLRTALENGDLEKLKALVEEAGYNPENAKIYLITPEELKESAGGSAGGSAGG [r7_3_TrMRF]	0.464 ± 0.055 kcal/mol	0.741 ± 0.11 kcal/mol	-0.133 ± 0.1 kcal/mol
SAGGSAGGSAGGRFEVLGVEPLPGNWVRVRVRYPGLGREATFLVRVSSLPLPPVDLDRFDSAGGSAGGSAGG [r11_986_TrMRF]	2.71 ± 0.083 kcal/mol	3.11 ± 0.046 kcal/mol	1.82 ± 0.037 kcal/mol
